No end group written: not given here. *: point of attachment. Biotin = O=C1N[C@H]2[C@H](CS[C@H]2CCCCC(=O)*)N1
What was measured:
asyn_113-127_121A = molecular target: T1, asyn_113-127_121A (human); assay: Ala-scan peptide ELISA, row A, run 1
T1 construct: substitution is already in the entry; also called pep10
T1 peptide: Biotin-LEDMPVDPANEAYEM
Experimental: (§1) 96-well Nunc plates were coated with 50 μL per well of 1 μg/mL streptavidin (from Jackson Immuno Research Laboratory) in PBS at 4° C. overnight. The plates were washed three times with PBST, and blocked with PBS containing 3% BSA at room temperature for 1 hour. The N-terminal biotinylated peptides were dissolved in Milli Q water to a concentration of 2 mg/mL, then further diluted to a concentration of 2 μg/mL with PBS. 50 μl of the diluted peptide was applied to the streptavidin-coated plates and incubated at 4° C. overnight. 2 μg/mL of biotinylated human alpha-synuclein was used as the positive control. The plates were washed three times with PBST before use. Purified antibody was diluted by serial dilution methods, from 20 μg/mL to 1 ng/mL, and 50 μL of the antibody solution was added to the peptide-coated wells. The plates were incubated for 1 hour at room temperature, then washed three times with PBST. Secondary detection antibody (goat anti-rat HRP (obtained from Southern Biotech)) was added with 1:5,000 dilutions and incubated for 1 hour at room temperature, then washed three times with PBST. Plates were developed with 50 μL/well of TMB substrate (Thermo Fisher) and quenched with 50 μL/well of 1 N sulfuric acid. The signal was quantified on a BioTek® plate reader at A450. A parallel repeat was performed for each peptide in a separate plate.

asyn_113-127_124P [1] = molecular target: T2, asyn_113-127_124P (human); assay: Ala-scan peptide ELISA, row A, run 1
T2 construct: substitution is already in the entry; also called pep14
T2 peptide: Biotin-LEDMPVDPDNEPYEM
Experimental: as §1

asyn_113-127_118A = molecular target: T3, asyn_113-127_118A (human); assay: Ala-scan peptide ELISA, row A, run 1
T3 construct: substitution is already in the entry; also called pep7
T3 peptide: Biotin-LEDMPADPDNEAYEM
Experimental: as §1

asyn_113-127_124G [2] = molecular target: T4, asyn_113-127_124G (human); assay: Ala-scan peptide ELISA, row A, run 1
T4 construct: substitution is already in the entry; also called pep13
T4 peptide: Biotin-LEDMPVDPDNEGYEM
Experimental: as §1

asyn_113-127_116A [3] = molecular target: T5, asyn_113-127_116A (human); assay: Ala-scan peptide ELISA, row A, run 1
T5 construct: substitution is already in the entry; also called pep5
T5 peptide: Biotin-LEDAPVDPDNEAYEM
Experimental: as §1

asyn_113-127_122A [4] = molecular target: T6, asyn_113-127_122A (human); assay: Ala-scan peptide ELISA, row A, run 1
T6 construct: substitution is already in the entry; also called pep11
T6 peptide: Biotin-LEDMPVDPDAEAYEM
Experimental: as §1

asyn_113-127_126A [5] = molecular target: T7, asyn_113-127_126A (human); assay: Ala-scan peptide ELISA, row A, run 1
T7 construct: substitution is already in the entry; also called pep16
T7 peptide: Biotin-LEDMPVDPDNEAYAM
Experimental: as §1

asyn_113-127_115A [6] = molecular target: T8, asyn_113-127_115A (human); assay: Ala-scan peptide ELISA, row A, run 1
T8 construct: substitution is already in the entry; also called pep4
T8 peptide: Biotin-LEAMPVDPDNEAYEM
Experimental: as §1

asyn_113-127_123A [7] = molecular target: T9, asyn_113-127_123A (human); assay: Ala-scan peptide ELISA, row A, run 1
T9 construct: substitution is already in the entry; also called pep12
T9 peptide: Biotin-LEDMPVDPDNAAYEM
Experimental: as §1

asyn_113-127_119A [8] = molecular target: T10, asyn_113-127_119A (human); assay: Ala-scan peptide ELISA, row A, run 1
T10 construct: substitution is already in the entry; also called pep8
T10 peptide: Biotin-LEDMPVAPDNEAYEM
Experimental: as §1

asyn_113-127 = molecular target: T11, asyn_113-127 (human); assay: Ala-scan peptide ELISA, row A, run 1
T11 construct: also called pep1
T11 peptide: Biotin-LEDMPVDPDNEAYEM
Experimental: as §1

asyn_113-127_114A [9] = molecular target: T12, asyn_113-127_114A (human); assay: Ala-scan peptide ELISA, row A, run 1
T12 construct: substitution is already in the entry; also called pep3
T12 peptide: Biotin-LADMPVDPDNEAYEM
Experimental: as §1

asyn_113-127_117A [10] = molecular target: T13, asyn_113-127_117A (human); assay: Ala-scan peptide ELISA, row A, run 1
T13 construct: substitution is already in the entry; also called pep6
T13 peptide: Biotin-LEDMAVDPDNEAYEM
Experimental: as §1

asyn_113-127_125A = molecular target: T14, asyn_113-127_125A (human); assay: Ala-scan peptide ELISA, row A, run 1
T14 construct: substitution is already in the entry; also called pep15
T14 peptide: Biotin-LEDMPVDPDNEAAEM
Experimental: as §1

asyn_113-127_113A [11] = molecular target: T15, asyn_113-127_113A (human); assay: Ala-scan peptide ELISA, row A, run 1
T15 construct: substitution is already in the entry; also called pep2
T15 peptide: Biotin-AEDMPVDPDNEAYEM
Experimental: as §1

[12] = molecular target: T16, biotinylated human alpha-synuclein (human, UniProt P37840 1-140); assay: Ala-scan peptide ELISA, row A, run 1
Experimental: as §1

asyn_113-127_120A = molecular target: T17, asyn_113-127_120A (human); assay: Ala-scan peptide ELISA, row A, run 1
T17 construct: substitution is already in the entry; also called pep9
T17 peptide: Biotin-LEDMPVDADNEAYEM
Experimental: as §1

asyn_113-127_127A [13] = molecular target: T18, asyn_113-127_127A (human); assay: Ala-scan peptide ELISA, row A, run 1
T18 construct: substitution is already in the entry; also called pep17
T18 peptide: Biotin-LEDMPVDPDNEAYEA
Experimental: as §1

asyn_113-127_124P [14] = molecular target: T2, asyn_113-127_124P; assay: Ala-scan peptide ELISA, row B, run 1
Experimental: as §1

asyn_113-127_124G [15] = molecular target: T4, asyn_113-127_124G; assay: Ala-scan peptide ELISA, row B, run 1
Experimental: as §1

asyn_113-127_116A [16] = molecular target: T5, asyn_113-127_116A; assay: Ala-scan peptide ELISA, row B, run 1
Experimental: as §1

asyn_113-127_122A [17] = molecular target: T6, asyn_113-127_122A; assay: Ala-scan peptide ELISA, row B, run 1
Experimental: as §1

asyn_113-127_115A [18] = molecular target: T8, asyn_113-127_115A; assay: Ala-scan peptide ELISA, row B, run 1
Experimental: as §1

asyn_113-127_123A [19] = molecular target: T9, asyn_113-127_123A; assay: Ala-scan peptide ELISA, row B, run 1
Experimental: as §1

asyn_113-127_119A [20] = molecular target: T10, asyn_113-127_119A; assay: Ala-scan peptide ELISA, row B, run 1
Experimental: as §1

asyn_113-127_114A [21] = molecular target: T12, asyn_113-127_114A; assay: Ala-scan peptide ELISA, row B, run 1
Experimental: as §1

asyn_113-127_117A [22] = molecular target: T13, asyn_113-127_117A; assay: Ala-scan peptide ELISA, row B, run 1
Experimental: as §1

asyn_113-127_113A [23] = molecular target: T15, asyn_113-127_113A; assay: Ala-scan peptide ELISA, row B, run 1
Experimental: as §1

[24] = molecular target: T16, biotinylated human alpha-synuclein; assay: Ala-scan peptide ELISA, row B, run 1
Experimental: as §1

asyn_113-127_122A [25] = molecular target: T6, asyn_113-127_122A; assay: Ala-scan peptide ELISA, row E, run 2
Experimental: as §1

asyn_113-127_126A [26] = molecular target: T7, asyn_113-127_126A; assay: Ala-scan peptide ELISA, row E, run 2
Experimental: as §1

asyn_113-127_123A [27] = molecular target: T9, asyn_113-127_123A; assay: Ala-scan peptide ELISA, row E, run 2
Experimental: as §1

asyn_113-127_114A [28] = molecular target: T12, asyn_113-127_114A; assay: Ala-scan peptide ELISA, row E, run 2
Experimental: as §1

asyn_113-127_117A [29] = molecular target: T13, asyn_113-127_117A; assay: Ala-scan peptide ELISA, row E, run 2
Experimental: as §1

asyn_113-127_127A [30] = molecular target: T18, asyn_113-127_127A; assay: Ala-scan peptide ELISA, row E, run 2
Experimental: as §1

[31] = molecular target: human alpha-synuclein monomer (human, UniProt P37840 1-140); assay: ELISA, coated human alpha-synuclein

B1: 20H4 (antibody, rat IgG2b, V domains shown)
VH: AVQLVESGGGLVQPKESLKISCAASGFTFSNAAMYWVRQAPGKGLELLARIRTKPNNYATYHADSVKGRFTISRDDSQSMVYLHMGNLKTEDTAMYYCTADMATGDYWGPGVMVTVSS
VL: DIQMTQSPPVLSVSVGDRVTLSCKASQNINKNLDWYQQKHGEAPKPLIYSTNNLQTGVPSRFSGSGSGTDYTLTISSLQPEDVATYYCYQYKSAWTFGGGTKLELR
notes: also called clone 20H4; rat 20H4
A450 (asyn_113-127_121A): 0.496 OD
A450 (asyn_113-127_124P [1]): 0.055 OD
A450 (asyn_113-127_118A): 0.504 OD
A450 (asyn_113-127_124G [2]): 0.371 OD
A450 (asyn_113-127_116A [3]): 0.524 OD
A450 (asyn_113-127_122A [4]): 0.06 OD
A450 (asyn_113-127_126A [5]): 0.371 OD
A450 (asyn_113-127_115A [6]): 0.502 OD
A450 (asyn_113-127_123A [7]): 0.533 OD
A450 (asyn_113-127_119A [8]): 0.063 OD
A450 (asyn_113-127): 0.545 OD
A450 (asyn_113-127_114A [9]): 0.505 OD
A450 (asyn_113-127_117A [10]): 0.55 OD
A450 (asyn_113-127_125A): 0.053 OD
A450 (asyn_113-127_113A [11]): 0.529 OD
A450 [12]: 0.66 OD
A450 (asyn_113-127_120A): 0.414 OD
A450 (asyn_113-127_127A [13]): 0.338 OD
A450 (asyn_113-127_124P [14]): 0.047 OD
A450 (asyn_113-127_124G [15]): 0.366 OD
A450 (asyn_113-127_116A [16]): 0.501 OD
A450 (asyn_113-127_122A [17]): 0.058 OD
A450 (asyn_113-127_115A [18]): 0.486 OD
A450 (asyn_113-127_123A [19]): 0.546 OD
A450 (asyn_113-127_119A [20]): 0.058 OD
A450 (asyn_113-127_114A [21]): 0.471 OD
A450 (asyn_113-127_117A [22]): 0.527 OD
A450 (asyn_113-127_113A [23]): 0.462 OD
A450 [24]: 0.711 OD
A450 (asyn_113-127_122A [25]): 0.05 OD
A450 (asyn_113-127_126A [26]): 0.272 OD
A450 (asyn_113-127_123A [27]): 0.259 OD
A450 (asyn_113-127_114A [28]): 0.243 OD
A450 (asyn_113-127_117A [29]): 0.267 OD
A450 (asyn_113-127_127A [30]): 0.279 OD
antibody concentration at which ELISA is positive [31]: < 40 ng/mL

Source: patent US20230074436A1 (DENALI THERAPEUTICS, published 2023)
